From patent US20260242419A1, “A CYCLIC PEPTIDE FOR TRAPPING INTERLEUKIN-1 BETA” (Merck Sharp & Dohme LLC, priority 2023, published 2026)
Starred links: 1 amine or outer side, 2 acyl side, 3 side chain; linkers in the order of their positions; H or OH if unused. Non-standard residues stand in square brackets, D forms with d. dProc4CH21Naph4F = (2R,4R)-4-[(4-fluoro-1-naphthyl)methyl]pyrrolidine-2-carboxylic acid, O=C([C@H]1C[C@@H](Cc2ccc(F)c3ccccc23)CN1[*:1])[*:2]; Bip4CONMe2 = (2S)-2-amino-3-[4-[4-(dimethylcarbamoyl)phenyl]phenyl]propanoic acid, CN(C)C(=O)c1ccc(-c2ccc(C[C@H](N[*:1])C(=O)[*:2])cc2)cc1; dProc3Bn4Cl = (2R,3S)-3-[(4-chlorophenyl)methyl]pyrrolidine-2-carboxylic acid, O=C([C@H]1[C@@H](Cc2ccc(Cl)cc2)CCN1[*:1])[*:2]; dProc4Bn4Cl = (2R,4R)-4-[(4-chlorophenyl)methyl]pyrrolidine-2-carboxylic acid, O=C([C@H]1C[C@@H](Cc2ccc(Cl)cc2)CN1[*:1])[*:2]; TyrEtNAc = (2S)-3-[4-(2-acetamidoethoxy)phenyl]-2-amino-propanoic acid, CC(=O)NCCOc1ccc(C[C@H](N[*:1])C(=O)[*:2])cc1; dProc3CH24Pal = (2R,3S)-3-(4-pyridylmethyl)pyrrolidine-2-carboxylic acid, O=C([C@H]1[C@@H](Cc2ccncc2)CCN1[*:1])[*:2]; DabMe3 = [(3S)-3-amino-4-oxo-butyl]-trimethyl-ammonium, C[N+](C)(C)CC[C@H](N[*:1])C(=O)[*:2]; 4PyrimAla = (2S)-2-amino-3-pyrimidin-4-yl-propanoic acid, O=C([C@H](Cc1ccncn1)N[*:1])[*:2]; Phe4pcCCA = (1R,4s)-4-(4-((S)-2-amino-2-carboxyethyl)phenyl)cyclohexane-1-carboxylic acid; Ala3Isoxa5Me = 3-(5-methylisoxazol-3-yl)alanine, Cc1cc(C[C@H](N[*:1])C(=O)[*:2])no1; Ala2Oxa = 3-(oxazol-2-yl)alanine, O=C([C@H](Cc1ncco1)N[*:1])[*:2]; dPro(4R-(4-pyridylmethyl)) = O=C(O)[C@H]1C[C@@H](Cc2ccncc2)CN1; Ala(piperidin-4-yl) = O=C([C@H](CC1CCN([*:3])CC1)N[*:1])[*:2]; Trp(βS-Me,4-F) = C[C@@H](c1c[nH]c2cccc(F)c12)[C@H](N)C(=O)O; Bip(4'-CONH2) = NC(=O)c1ccc(-c2ccc(C[C@H](N)C(=O)O)cc2)cc1; Bip(4'-COOH) = N[C@@H](Cc1ccc(-c2ccc(C(=O)O)cc2)cc1)C(=O)O; Ala(1-bicyclo(1.1.1)pentyl) = N[C@@H](CC12CC(C1)C2)C(=O)O; dPro(4R-Bzl(4-F)) = O=C(O)[C@H]1C[C@@H](Cc2ccc(F)cc2)CN1; dPro(3S-(4-F-Bn)) = O=C(O)[C@@H]1NCC[C@@H]1Cc1ccc(F)cc1; Ala(morpholin-4-yl) = N[C@@H](CN1CCOCC1)C(=O)O; Ala(pyrimidin-5-yl) = N[C@@H](Cc1cncnc1)C(=O)O; Phe(4-COOH) = N[C@@H](Cc1ccc(C(=O)O)cc1)C(=O)O; Ala(4-Pyridazinyl) = N[C@@H](Cc1ccnnc1)C(=O)O; Ala(2-pyrazinyl) = N[C@@H](Cc1cnccn1)C(=O)O; Bip = N[C@@H](Cc1ccc(-c2ccccc2)cc1)C(=O)O; Pro(cis-4-F) = O=C(O)[C@@H]1C[C@H](F)CN1; Ala(4-THP) = N[C@@H](CC1CCOCC1)C(=O)O; cisHyp = O=C(O)[C@@H]1C[C@H](O)CN1; d(αMeD) = C[C@@](N)(CC(=O)O)C(=O)O; h4Pal = N[C@@H](CCc1ccncc1)C(=O)O; 3Pal = N[C@@H](Cc1cccnc1)C(=O)O; 4Pal = N[C@@H](Cc1ccncc1)C(=O)O; aThr = C[C@H](O)[C@H](N)C(=O)O; d(αMeS) = C[C@@](N)(CO)C(=O)O; Dab = NCC[C@H](N)C(=O)O; Aib = CC(C)(N)C(=O)O; Sar = CNCC(=O)O

B1: SEQ ID NO 314 (peptide)
peptide: cyclo([Bip(4'-COOH)][4Pal][Phe(4-COOH)]G[Pro(cis-4-F)][Trp(βS-Me,4-F)][Aib]SW[Aib][DabMe3]Q[Dab]G[dPro(4R-Bzl(4-F))])
modifications: ring closure inferred; not fully specified (N-terminus); printed as cyclic, Bip4CO2H-4Pal-Phe4COOH-G-Proc4F-sbMeW4F-Aib-S-W-Aib-DabMe3-Q-Dab-G-dProc4Bn4F
B2: SEQ ID NO 313 (peptide)
peptide: cyclo([Bip(4'-COOH)][4Pal][Phe(4-COOH)]G[Pro(cis-4-F)][Trp(βS-Me,4-F)][Aib]SW[d(αMeD)][Ala(4-THP)]Q[Dab]G[dPro(4R-Bzl(4-F))])
modifications: ring closure inferred; not fully specified (N-terminus); printed as cyclic, Bip4CO2H-4Pal-Phe4COOH-G-Proc4F-SbMeW4F-Aib-S-W-daMeD-AlaTHP4-Q-Dab-G-dProc4Bn4F

Target: Recombinant human IL-1β (BioLegend 579404) (human, UniProt P01584 117-269)
Experiment: cell-based or functional assay

Binder	MRC5 IC50 [nM]
cyclo([Phe4pcCCA][Ala(1-bicyclo(1.1.1)pentyl)][Phe(4-COOH)]G[Pro(cis-4-F)][Trp(βS-Me,4-F)][Aib]SW[d(αMeD)][aThr]Q[Dab]G[dPro(4R-(4-pyridylmethyl))]) (ring closure inferred) [SEQ ID NO 334]	0.022
cyclo([Bip4CONMe2][4Pal][Phe(4-COOH)]G[Pro(cis-4-F)][Trp(βS-Me,4-F)][Aib]SW[d(αMeS)][Ala(pyrimidin-5-yl)]Q[Dab]G[dPro(4R-(4-pyridylmethyl))]) (ring closure inferred) [SEQ ID NO 338]	0.018
cyclo([Bip(4'-COOH)][4Pal][Phe(4-COOH)]G[Pro(cis-4-F)][Trp(βS-Me,4-F)][Aib]SW[d(αMeD)][4Pal]Q[Dab]G[dPro(4R-Bzl(4-F))]) (ring closure inferred) [SEQ ID NO 324]	0.013
cyclo([Bip(4'-COOH)][4Pal][Phe(4-COOH)]G[Pro(cis-4-F)][Trp(βS-Me,4-F)][Aib]SW[d(αMeD)][Ala(4-Pyridazinyl)]Q[Dab]G[dPro(4R-Bzl(4-F))]) (ring closure inferred) [SEQ ID NO 322]	0.013
cyclo([Bip(4'-COOH)][4Pal][Phe(4-COOH)]G[Pro(cis-4-F)][Trp(βS-Me,4-F)][Aib]SW[d(αMeD)][Ala(morpholin-4-yl)]Q[Dab]G[dPro(4R-Bzl(4-F))]) (ring closure inferred) [SEQ ID NO 319]	0.017
cyclo([Bip(4'-COOH)][4Pal][Phe(4-COOH)]G[Pro(cis-4-F)][Trp(βS-Me,4-F)][Aib]SW[d(αMeD)][Ala(2-pyrazinyl)]Q[Dab]G[dPro(4R-Bzl(4-F))]) (ring closure inferred) [SEQ ID NO 321]	0.015
cyclo([Bip(4'-CONH2)][4Pal][Phe(4-COOH)]G[Pro(cis-4-F)][Trp(βS-Me,4-F)][Aib]SW[d(αMeS)][Ala(pyrimidin-5-yl)]Q[Dab]G[dPro(4R-(4-pyridylmethyl))]) (ring closure inferred) [SEQ ID NO 339]	0.024
cyclo([TyrEtNAc][4Pal][Phe(4-COOH)]G[Pro(cis-4-F)][Trp(βS-Me,4-F)][Aib]EW[Aib][Ala3Isoxa5Me]Q[Dab]G[dPro(4R-(4-pyridylmethyl))]) (ring closure inferred; not fully specified (N-terminus)) [SEQ ID NO 315]	0.018
B1	0.02
cyclo([TyrEtNAc][4Pal][Phe(4-COOH)]G[Pro(cis-4-F)][Trp(βS-Me,4-F)][Aib]EW[Aib]FQ[Dab]G[dPro(4R-(4-pyridylmethyl))]) (ring closure inferred) [SEQ ID NO 336]	0.023
cyclo([Bip(4'-COOH)][4Pal][Phe(4-COOH)]G[Pro(cis-4-F)][Trp(βS-Me,4-F)][Aib]SW[d(αMeD)][Ala(pyrimidin-5-yl)]Q[Dab]G[dProc3Bn4Cl]) (ring closure inferred) [SEQ ID NO 330]	0.008
cyclo([Bip(4'-COOH)][4Pal][Phe(4-COOH)]G[Pro(cis-4-F)][Trp(βS-Me,4-F)][Aib]SW[d(αMeD)][Ala(pyrimidin-5-yl)]Q[Dab]G[dPro(3S-(4-F-Bn))]) (ring closure inferred) [SEQ ID NO 331]	0.011
cyclo([Bip(4'-COOH)][4Pal][Phe(4-COOH)]G[Pro(cis-4-F)][Trp(βS-Me,4-F)][Aib]SW[d(αMeD)][Ala(pyrimidin-5-yl)]Q[Dab]G[dProc4CH21Naph4F]) (ring closure inferred) [SEQ ID NO 327]	0.016
cyclo([Bip(4'-COOH)][4Pal][Phe(4-COOH)]G[cisHyp][Trp(βS-Me,4-F)][Aib]SW[Aib][Ala(pyrimidin-5-yl)]Q[Dab]G[dProc3CH24Pal]) (ring closure inferred) [SEQ ID NO 325]	0.027
cyclo([Bip(4'-COOH)][4Pal][Phe(4-COOH)]G[Pro(cis-4-F)][Trp(βS-Me,4-F)][Aib]SW[Aib][Ala(pyrimidin-5-yl)]Q[Dab]G[dProc3CH24Pal]) (ring closure inferred) [SEQ ID NO 326]	0.011
cyclo([Bip(4'-COOH)][4Pal][Phe(4-COOH)]G[Pro(cis-4-F)][Trp(βS-Me,4-F)][Aib]SW[d(αMeD)][Ala(piperidin-4-yl)]Q[Dab]G[dPro(4R-Bzl(4-F))]) (ring closure inferred) [SEQ ID NO 320]	0.015
cyclo([Phe4pcCCA][Ala(1-bicyclo(1.1.1)pentyl)][Phe(4-COOH)]G[Pro(cis-4-F)][Trp(βS-Me,4-F)][Aib]SW[d(αMeD)][Ala(pyrimidin-5-yl)]Q[Dab]G[dPro(4R-(4-pyridylmethyl))]) (ring closure inferred) [SEQ ID NO 335]	0.022
cyclo([Bip(4'-COOH)][4Pal][Phe(4-COOH)]G[Pro(cis-4-F)][Trp(βS-Me,4-F)][Aib]SW[d(αMeD)][aThr]Q[Dab][Sar][dPro(4R-(4-pyridylmethyl))]) (ring closure inferred) [SEQ ID NO 337]	0.022
cyclo([TyrEtNAc][4Pal][Phe(4-COOH)]G[Pro(cis-4-F)][Trp(βS-Me,4-F)][Aib]EW[Aib][h4Pal]Q[Dab]G[dPro(4R-(4-pyridylmethyl))]) (ring closure inferred) [SEQ ID NO 318]	0.025
cyclo([TyrEtNAc][4Pal][Phe(4-COOH)]G[Pro(cis-4-F)][Trp(βS-Me,4-F)][Aib]EW[Aib]HQ[Dab]G[dPro(4R-(4-pyridylmethyl))]) (ring closure inferred) [SEQ ID NO 317]	0.015
cyclo([Bip(4'-COOH)][4Pal][Phe(4-COOH)]G[Pro(cis-4-F)][Trp(βS-Me,4-F)][Aib]SW[d(αMeD)][4PyrimAla]Q[Dab]G[dPro(4R-Bzl(4-F))]) (ring closure inferred) [SEQ ID NO 332]	0.013
cyclo([Bip(4'-COOH)][4Pal][Phe(4-COOH)]G[Pro(cis-4-F)][Trp(βS-Me,4-F)][Aib]SW[d(αMeD)][Ala(pyrimidin-5-yl)]Q[Dab]G[dProc4Bn4Cl]) (ring closure inferred) [SEQ ID NO 329]	0.009
cyclo([Bip][4Pal][Phe(4-COOH)]G[Pro(cis-4-F)][Trp(βS-Me,4-F)][Aib]SW[d(αMeD)][Ala(pyrimidin-5-yl)]Q[Dab]G[dPro(4R-(4-pyridylmethyl))]) (ring closure inferred) [SEQ ID NO 333]	0.022
B2	0.015
cyclo([TyrEtNAc][4Pal][Phe(4-COOH)]G[Pro(cis-4-F)][Trp(βS-Me,4-F)][Aib]EW[Aib][Ala2Oxa]Q[Dab]G[dPro(4R-(4-pyridylmethyl))]) (ring closure inferred; not fully specified (N-terminus)) [SEQ ID NO 316]	0.02
cyclo([Bip(4'-COOH)][4Pal][Phe(4-COOH)]G[Pro(cis-4-F)][Trp(βS-Me,4-F)][Aib]SW[d(αMeD)][3Pal]Q[Dab]G[dPro(4R-Bzl(4-F))]) (ring closure inferred) [SEQ ID NO 323]	0.012
cyclo([Bip(4'-COOH)][4Pal][Phe(4-COOH)]G[Pro(cis-4-F)][Trp(βS-Me,4-F)][Aib]SW[d(αMeD)][Ala(pyrimidin-5-yl)]Q[Dab]G[dProc3CH24Pal]) (ring closure inferred) [SEQ ID NO 328]	0.008
cyclo([Bip][4Pal][Phe(4-COOH)]G[Pro(cis-4-F)][Trp(βS-Me,4-F)][Aib]SW[d(αMeS)][Ala(pyrimidin-5-yl)]Q[Dab]G[dPro(4R-(4-pyridylmethyl))]) (ring closure inferred) [SEQ ID NO 340]	0.021
